Patent US20250241939A1, “NUCLEIC ACID-BASED DELIVERY SYSTEMS AND USES THEREOF” (Kodikaz Therapeutic Solutions, Inc., priority 2022, published 2025)

Experiments:
[1] = system: MM1s (multiple myeloma) cell genome; assay: ctDNA coculture with MM1s cells, whole genome sequencing: genomic insertion sites, transposons at insertion points and SNVs (multiple myeloma); type: cell-based, human; details: TABLE 7, multiple myeloma co-culture
[2] = system: plasma cells (CD138+) and non-plasma cells (CD138−) of bone marrow; assay: Cell targeting in bone marrow samples from patients with and without multiple myeloma, flow cytometry; type: cell-based, human
Experimental: FIG. 10 provides illustrative flow cytometry scatterplots displaying the cell capture of AluSp, MER11, and control transposon sequence in plasma cells (CD138+) and non-plasma cells (CD138−) derived from bone marrow of multiple myeloma patients.
Data for plasma cells (CD138+) and non-plasma cells (CD138−) are separately shown.
Cell targeting of the AluSp and MER11C sequences was tested in bone marrow samples derived from patients with and without multiple myeloma.

[3] = system: MM1s and U266 cells; assay: Cell capture of several transposons in two MM cell lines at 4 hours, flow cytometry; type: cell-based, human; details: 4 hours of culture
Experimental: The variability of cell capture of several transposons was tested in two MM cell lines at 4 hours of culture.

[4] = system: MM cell lines MM1S, JK6L, and RPMI; assay: Uptake of additional MM2 fragments, fluorescent microscopy; type: cell-based; details: Fluorescein 12 dCTP or 5′FAM labelling
Experimental: FIG. 21 provides microcopy images showing uptake of 5′ fluorescently labelled synthetic DNA fragments derived from a multiple myeloma ctDNA by MM cells (JK6L) or non-MM cells.
Additional fragments were generated to analyze further the sequence to identify a region that contributes to uptake by MM cells (e.g., a recognition sequence). The following sequences were generated with Fluorescein 12 dCTP or 5′FAM labelling:
The fluorescent DNA sequences were incubated with multiple cell lines (e.g., MM cell lines MM1S, JK6L, and RPMI, and non-MM cell lines HT1080, HCT116, and DU145) and uptake was evaluated by fluorescent microscopy. […] Specificity of uptake by MM cells was preserved as shown by a lack of uptake by HT1080 and HCT116 cells (FIG. 21).

[5] = system: MM/B cell lines (MM1S and RPMI); assay: Uptake of MM2 fragments in different cell types; type: cell-based; details: DAPI and Texas red-phalloidin counterstain
Description: (§1) FIG. 20 provides fluorescence microcopy images evaluating uptake of fluorescently labelled synthetic DNA derived from a multiple myeloma ctDNA (MM2 (1-290), MM2 (89-290), MM2 (177-290), and MM2 (1-201), and MM2 (1-113)) by multiple myeloma/B cell lines (MM1S and RPMI) and cell lines of other cell types (HFF—fibroblast, DU145—prostate cancer, MCF10A breast).
(§2) A follow-up experiment evaluated uptake of the fragments in different cell types, with counterstaining to identify nuclei (DAPI) and cytoplasm (Texas red-phalloidin).

[6] = system: HFF (fibroblast), DU145 (prostate cancer), and MCF10A (breast); assay: Uptake of MM2 fragments in different cell types; type: cell-based
Description: as §1, §2

[7] = system: multiple myeloma cell line; assay: Uptake of fluorescent MM2 fragments, fluorescent microscopy; type: cell-based; details: Fluorescein 12 dCTP labelled PCR products
Experimental: FIG. 19 provides fluorescence microcopy images showing uptake of fluorescently labelled synthetic DNA derived from a multiple myeloma ctDNA (MM2 (1-290), MM2 (89-290), MM2 (177-290), and MM2 (1-201), and MM2 (1-113)), or a control sequence.
Fluorescein 12 dCTP from Perkin Elmer was used to label the PCR products, which were purified after the reaction.
In an initial study, fragments were generated as follows:
The fluorescent DNA sequences were incubated with multiple a myeloma cell line and uptake was evaluated by fluorescent microscopy.
The study was repeated with 5′FAM-labelled primers, with similar results.

B1: CY5-MER11C: synthesized MM retrotransposon MER11C, labelled with CY5 (nucleic acid, listed as Homo sapiens)
DNA: TATCGAAAATTCACCCCCGATATTCACGTAGGTTCTTTTCTATTTTCCCTAAGCGTCGGCAGGTTTGAGAAATAAAGGGACAGAGTACAAAAGAGAGAAATTTTAAAGCTGGGCGTCCGGGGGAGACATCACATGTTGGTAGGTTCCATGATGCCCCACAAGCCGTAAAAACCAGCAAGTTTTTATTAGTGATTTTCAAAAGGGGAGGGAGTGTACGAATAGGTGTGGGTCACAGAGATCACGTGCTTCACAAGGTAATAGAATATCACAAGGCAAATGGAGGCAGGGCGAGATCACAGGACCACAGGACCGGGGTGAAATTAAAATTGCTAATGAAGTTTTGGGCACCATTGTCATTGATAACATCTTATCAGGAGACAGGGTTTGAGAGACAACCGGTCTGACCAAAATTTATTAGGTGGGAATTTCCTCGTCCTAATAAGCCTGGGAGTGCTATGGGAGACTGGGGCTTATTTCATCCCGTAGAGGCAACCATAAAAGACAGGCCCAAGCGGCCATTTAGAGCCTCCCAGGACATTCTCTTTCTCAGGGTGTTCCTTGCTGAGAAAAAGAATTCAGATATTTCTCCATTTGCTTTTGAAAGAAGAGAAATATGGCTCTGTTCCCGGCTCACGGCGCAGATTTAAGGTTATCTCCTTTTCCCTGAACAATTGCTGTTATCCTGTTCTTTTTTCAAGGTGCCCAGATTTCATATTGTTCAAACACACATGCTTACAATTTGTGCAGTTAAGCAATATCACAGGGTCCTGAGGGACATACATCCTCCTCAGCTGACAGGATTAAGAGATTAAAGTAAAGACAGGCATAGGAAATCACAAGGGTATTGATTGGGGAAGTGATAAGTGTCCATGAAATCTTCACAATTTATGTTTAGAGATTGCAGTAAAGACAGGCATAAGAAATTATAAAAGTATTAATTTGGGGAACTAATAAATGTCCATGAAATCTTCACAATCCACGTTCTTCTGCCATGGCTTCAGCCGGTCCCTCCGTTCGGGGTCCCTGACTTCCCGCAACA
modifications: CY5 label
Q: What does the source list for B1?
A: blast orientation ([1]; BLAST alignment orientation): Plus/Plus; blast chr ([1]; chromosome with the longest result for BLAST analysis of the full contig): chr14; Distance from insertion ([1]; distance between insertion and the transposon (0 if they overlap)): 0; Location relative to insertion ([1]; location of the transposon relative to the insertion on the contig): intersect; signal in plasma cells of MM patients vs non-MM CD138 (−) cells compartment ([2]; 14 hours): higher levels of signal; CY5 positive plasma cells ([2]; 14 hours of culture, vs control sequence or PC specific sequence): more CY5 positive plasma cells; cell capture [3]: higher than that of the other transposons, the control sequence, and PC transposons

B2: MM2 (88-168): fluorescently labelled fragment of MM2 (nucleic acid, listed as Homo sapiens)
DNA: CCAGGATGGAGTGCAAGGGATCTTGGCTCACCACAGCCTCCGCCTCTTGGGTTCAAGTGATTCTTCTGCCTCAGCCTCCC
modifications: DNA, all phosphodiester, methylation of C not given here; fluorescein label via fluorescein-12-dCTP or 5' FAM primer
Q: How did the “uptake by MM cells” value [4] turn out when B2 was run?
A: The value was “sufficient for uptake”.

B3: MM2 (1-201): fluorescently labelled fragment of MM2 (1-290) (nucleic acid, listed as Homo sapiens)
DNA: ACCCGGCCTTGGACACGCCATTTTCAACTCCGTGGTGCGTTTTTTTTTTTTTTTTTTTTTTTTTGTAATGGAGTTTCGCTCTTGTTGCCCAGGATGGAGTGCAAGGGATCTTGGCTCACCACAGCCTCCGCCTCTTGGGTTCAAGTGATTCTTCTGCCTCAGCCTCCCAAGTAGCTGGGATTATAAGCACCCACCACCACG
modifications: fluorescent label
Q: With B3 as the molecule, how does the uptake [5] read?
A: The uptake was “observed”.

Q: And the uptake [6]?
A: The uptake was “not”.

Q: What about the uptake [7] of the same molecule?
A: The uptake was “observed”.
